# Results taken from article PMC2787366.
# B1: hCDYL1b chromodomain (1–78 aa) (domain or fragment)
# chain: MASEELYEVERIVDKRKNKKGKTEYLVRWKGYDSEDDTWEPEQHLVNCEEYIHDFNRRHTEKQKESTLTRTNRTSPNN
# Tests used:
# Assay in all cases: fluorescence polarisation
# [1] = target: H3 peptide dimethylated on lysine 9 (fluorescence polarization)
# [2] = target: H3K9me3 peptide (fluorescence polarization)
# [3] = target: G9aK185me3 peptide (fluorescence polarization)
binder,measurement,setting,value
B1,fold weaker than with the H3K9me3 peptide,[1],1.5 fold
same,Kd,[2],2 µM
same,Kd,[3],8 µM
